The record followed here is paper PMC11496930, “Targeting RSV-neutralizing B cell receptors with anti-idiotypic antibodies” (Cell Reports, 2024).

For this experiment, the target named is ADI-19425 Fab (human, UniProt P0DOY2). The experiment in a line: BLI; 1D3 IgG or 2C1 IgG (67 nM) on anti-human IgG capture sensors; ADI-19425 Fab in serial dilutions from 250 nM to 0 nM; KB buffer, 30°C; 1:1 binding model. The settings on record: both partners purified. (In general: Biolayer interferometry detects binding as a change in optical thickness at a sensor tip.)
ADI-19425 Fab, sequence (VH, as listed by the source, chain 1 of 2): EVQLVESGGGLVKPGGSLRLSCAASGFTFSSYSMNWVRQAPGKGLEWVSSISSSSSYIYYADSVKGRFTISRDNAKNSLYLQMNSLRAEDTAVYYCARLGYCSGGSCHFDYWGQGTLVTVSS
ADI-19425 Fab, sequence (VL, as listed by the source, chain 2 of 2): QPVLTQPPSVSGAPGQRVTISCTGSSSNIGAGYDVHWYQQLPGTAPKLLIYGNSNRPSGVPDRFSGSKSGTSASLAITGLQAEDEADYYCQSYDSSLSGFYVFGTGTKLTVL

B1: 1D3 recombinant IgG (human constant regions) (antibody, V domains shown)
VH: QVQIQQSGAELMRPGASVKLSCKATGYTFTGYWIEWVKQRPGHGLEWIGEILSGRGTTNYNEKFKGKATFTADTYSNTAYMQLSSLTTGDSAIYYCARGGFLYGDGPFDYWGQGTTLTVSS
VL: DILLTQSPAILSVSPGERVSFSCRASQNIDTHIHWYQQRTNGSPRLLIKYASESISGIPSRFSGSGSGTDFTLTINSVESEDIADYYCQQSNSWPFTFGSGTKLEIK
notes: also called 1D3-IgG; 1D3 IgG; source: 293-6E cells, purified (Protein A)
B1 came in with a Kd of 400 pM.

B2: 2C1 recombinant IgG (human constant regions) (antibody, V domains shown)
VH: QVQLQQSGAELVRPGASVTLSCKASGYIFTDYEIHWLKQTPVHGLEWIGTSDPETGGFAYTQKFKGKAILTADKSSSTAYMELRSLTSEDSAVYYCTRRPYYGSGAWFAYWGQGTLVTVSA
VL: DIVMTQSHKFMSTSVGDRVSITCKANHDVNIAVAWYQQKPGQSPKLLIYSASYRYTGVPDRFTGSGSGTDFTFTISSVQAEDLAVYYCQQHYDTPRTFGGGTKLEIK
notes: also called 2C1-IgG; 2C1 IgG; source: 293-6E cells, purified (Protein A)
In turn, B2 came in with a Kd of 1500 pM. This Kd lies about 3.8-fold higher than the previous one.

In general, Kd refers to the equilibrium constant for the complex coming apart. A high value points to a looser complex.
